{"source": "paper doi:10.1101/2023.08.04.551977", "about": "(bioRxiv, 2023)", "molecules": {"B1": {"name": "menin Δ460-519 (natural protein)", "chain": "MGLKAAQKTLFPLRSIDDVVRLFAAELGREEPDLVLLSLVLGFVEHFLAVNRVIPTNVPELTFQPSPAPDPPGGLTYFPVADLSIIAALYARFTAQIRGAVDLSLYPREGGVSSRELVKKVSDVIWNSLSRSYFKDRAHIQSLFSFITGTKLDSSGVAFAVVGACQALGLRDVHLALSEDHAWVVFGPNGEQTAEVTWHGKGNEDRRGQTVNAGVAERSWLYLKGSYMRCDRKMEVAFMVCAINPSIDLHTDSLELLQLQQKLLWLLYDLGHLERYPMALGNLADLEELEPTPGRPDPLTLYHKGIASAKTYYRDEHIYPYMYLAGYHCRNRNVREALQAWADTATVIQDYNYCREDEEIYKEFFEVANDVIPNLLKEAASLLEAGEERPGEQSQGTQSQGSALQDPECFAHLLRFYDGICKWEEGSPTPVLHVGWATFLVQSLGRFEGQVRQKVRIVSGTVAGTARGPEGGSTAQVPAPTASPPPEGPVLTFQSEKMKGMKELLVATKINSSAIKLQLTAQSQVQMKKQKVSTPSDYTLSFLKRQRKGL", "modifications": "RED-NHS 2nd generation dye label on the labelled partner in the MST experiments"}, "B2": {"name": "menin Δ460-519/ 586-615 (natural protein)", "chain": "MGLKAAQKTLFPLRSIDDVVRLFAAELGREEPDLVLLSLVLGFVEHFLAVNRVIPTNVPELTFQPSPAPDPPGGLTYFPVADLSIIAALYARFTAQIRGAVDLSLYPREGGVSSRELVKKVSDVIWNSLSRSYFKDRAHIQSLFSFITGTKLDSSGVAFAVVGACQALGLRDVHLALSEDHAWVVFGPNGEQTAEVTWHGKGNEDRRGQTVNAGVAERSWLYLKGSYMRCDRKMEVAFMVCAINPSIDLHTDSLELLQLQQKLLWLLYDLGHLERYPMALGNLADLEELEPTPGRPDPLTLYHKGIASAKTYYRDEHIYPYMYLAGYHCRNRNVREALQAWADTATVIQDYNYCREDEEIYKEFFEVANDVIPNLLKEAASLLEAGEERPGEQSQGTQSQGSALQDPECFAHLLRFYDGICKWEEGSPTPVLHVGWATFLVQSLGRFEGQVRQKVRIVSGTVAGTARGPEGGSTAQVPAPTASPPPEGPVLTFQSEKMKGMKELLVATKINSSAIKLQLTAQSQV", "modifications": "RED-NHS 2nd generation dye label on the labelled partner in the MST experiments"}, "B3": {"name": "Wild-type menin (natural protein)", "chain": "MGLKAAQKTLFPLRSIDDVVRLFAAELGREEPDLVLLSLVLGFVEHFLAVNRVIPTNVPELTFQPSPAPDPPGGLTYFPVADLSIIAALYARFTAQIRGAVDLSLYPREGGVSSRELVKKVSDVIWNSLSRSYFKDRAHIQSLFSFITGTKLDSSGVAFAVVGACQALGLRDVHLALSEDHAWVVFGPNGEQTAEVTWHGKGNEDRRGQTVNAGVAERSWLYLKGSYMRCDRKMEVAFMVCAINPSIDLHTDSLELLQLQQKLLWLLYDLGHLERYPMALGNLADLEELEPTPGRPDPLTLYHKGIASAKTYYRDEHIYPYMYLAGYHCRNRNVREALQAWADTATVIQDYNYCREDEEIYKEFFEVANDVIPNLLKEAASLLEAGEERPGEQSQGTQSQGSALQDPECFAHLLRFYDGICKWEEGSPTPVLHVGWATFLVQSLGRFEGQVRQKVRIVSREAEAAEAEEPWGEEAREGRRRGPRRESKPEEPPPPKKPALDKGLGTGQGAVSGPPRKPPGTVAGTARGPEGGSTAQVPAPTASPPPEGPVLTFQSEKMKGMKELLVATKINSSAIKLQLTAQSQVQMKKQKVSTPSDYTLSFLKRQRKGL", "modifications": "RED-NHS 2nd generation dye label on the labelled partner in the MST experiments"}, "B4": {"name": "AR MBR-DBD-LBD (domain or fragment)", "chain": "GEAGAVAPYGYTRPPQGLAGQESDFTAPDVWYPGGMVSRVPYPSPTCVKSEMGPWMDSYSGPYGDMRLETARDHVLPIDYYFPPQKTCLICGDEASGCHYGALTCGSCKVFFKRAAEGKQKYLCASRNDCTIDKFRRKNCPSCRLRKCYEAGMTLGARKLKKLGNLKLQEEGEASSTTSPTEETTQKLTVSHIEGYECQPIFLNVLEAIEPGVVCAGHDNNQPDSFAALLSSLNELGERQLVHVVKWAKALPGFRNLHVDDQMAVIQYSWMGLMVFAMGWRSFTNVNSRMLYFAPDLVFNEYRMHKSRMYSQCVRMRHLSQEFGWLQITPQEFLCMKALLLFSIIPVDGLKNQKFFDELRMNYIKELDRIIACKRKNPTSCSRRFYQLTKLLDSVQPIARELHQFTFDLLIKSHMVSVDFPEMMAEIISVQVPKILSGKVKPIYFHTQ"}}, "key": {"Wild-type menin (human) [1]": {"molecular_target": "Wild-type menin (human) (UniProt O00255)", "assay": "MST"}, "[2]": {"molecular_target": "menin Δ460-519/ 586-615 (human) (UniProt O00255)", "assay": "MST"}, "menin-MLL complex": {"molecular_target": "menin-MLL complex (UniProt O00255)", "assay": "MST"}, "menin Δ460-519 (human)": {"molecular_target": "menin Δ460-519 (human) (UniProt O00255)", "assay": "MST"}, "Wild-type menin (human) [3]": {"molecular_target": "Wild-type menin (human) (UniProt O00255)", "assay": "MST", "remark": "listed apart in the source"}, "[4]": {"molecular_target": "His-sumo-AR MBR (aa. G473-T560)", "assay": "BLI"}, "AR MBR (aa. G473-T560)": {"molecular_target": "AR MBR (aa. G473-T560)", "assay": "NMR titration"}, "AR-v7": {"molecular_target": "T1, AR-v7 (UniProt P10275-3 1-644)", "T1 sequence": "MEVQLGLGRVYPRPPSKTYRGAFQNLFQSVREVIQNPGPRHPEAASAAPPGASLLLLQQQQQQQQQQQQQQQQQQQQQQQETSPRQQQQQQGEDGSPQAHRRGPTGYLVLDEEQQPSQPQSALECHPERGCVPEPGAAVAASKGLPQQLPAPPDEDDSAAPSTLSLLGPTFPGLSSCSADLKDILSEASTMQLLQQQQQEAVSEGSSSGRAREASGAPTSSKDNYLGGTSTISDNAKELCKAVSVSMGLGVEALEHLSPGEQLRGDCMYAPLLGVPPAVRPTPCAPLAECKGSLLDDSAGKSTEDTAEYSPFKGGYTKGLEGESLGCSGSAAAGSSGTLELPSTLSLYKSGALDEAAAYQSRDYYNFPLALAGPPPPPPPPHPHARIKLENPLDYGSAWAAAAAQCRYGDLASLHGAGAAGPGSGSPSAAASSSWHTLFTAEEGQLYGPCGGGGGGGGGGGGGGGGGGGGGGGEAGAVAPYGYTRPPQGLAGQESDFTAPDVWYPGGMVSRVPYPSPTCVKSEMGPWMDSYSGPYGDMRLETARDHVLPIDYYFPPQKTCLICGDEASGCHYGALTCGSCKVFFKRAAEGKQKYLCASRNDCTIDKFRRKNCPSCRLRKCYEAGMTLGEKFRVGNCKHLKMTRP", "assay": "MST"}, "HPLC-SAXS": {"molecular_target": "the molecule itself", "assay": "HPLC-SAXS"}, "MST": {"molecular_target": "the molecule itself", "assay": "MST"}, "Wild-type menin (human) [5]": {"molecular_target": "Wild-type menin (human) (UniProt O00255)", "assay": "dynamic light scattering"}, "Wild-type menin (human) [6]": {"molecular_target": "Wild-type menin (human) (UniProt O00255)", "assay": "SEC"}, "His-sumo-AR MBR B": {"molecular_target": "His-sumo-AR MBR B (UniProt P10275)", "assay": "BLI"}, "[7]": {"molecular_target": "His-sumo-AR MBR (aa. G473-T560)", "assay": "BLI", "remark": "listed apart in the source"}, "His-sumo-AR MBR A": {"molecular_target": "His-sumo-AR MBR A (UniProt P10275)", "assay": "BLI"}, "dynamic light scattering": {"molecular_target": "the molecule itself", "assay": "dynamic light scattering"}}, "note": "Where two headings read alike, the source gives them in different places."}
{"molecule": "His-sumo-AR MBR B (from UniProt P10275 509-559) (domain or fragment)", "values": [{"measurement": "Kd", "setting": "Wild-type menin (human) [1]", "result": 24, "unit": "µM"}]}
{"molecule": "His-sumo-AR MBR (aa. G473-T560) (domain or fragment)", "values": [{"measurement": "Kd", "setting": "Wild-type menin (human) [1]", "result": 1.7, "unit": "µM"}, {"measurement": "Kd", "setting": "[2]", "result": 2000, "unit": "nM"}, {"measurement": "Kd", "setting": "menin-MLL complex", "result": 10.8, "unit": "µM"}, {"measurement": "Kd", "setting": "menin Δ460-519 (human)", "result": 6.3, "unit": "µM"}, {"measurement": "Kd", "setting": "Wild-type menin (human) [3]", "result": 9.8, "unit": "µM"}]}
{"molecule": "His-sumo-AR MBR A (from UniProt P10275 473-518) (domain or fragment)", "values": [{"measurement": "Kd", "setting": "Wild-type menin (human) [1]", "result": 1000, "unit": "µM"}]}
{"molecule": "menin-MLL complex (from UniProt O00255;Q03164)", "values": [{"measurement": "Kd", "setting": "[4]", "result": 10.5, "unit": "µM"}]}
{"molecule": "B1", "values": [{"measurement": "Kd", "setting": "AR MBR (aa. G473-T560)", "result": 15.7, "unit": "µM"}, {"measurement": "Kd", "setting": "AR-v7", "result": "1700 ± 1800", "unit": "nM"}, {"measurement": "stoichiometry N", "setting": "HPLC-SAXS", "result": 2}, {"measurement": "Kd", "setting": "MST", "result": "1900 ± 900", "unit": "nM"}]}
{"molecule": "B2", "values": [{"measurement": "Kd", "setting": "MST", "result": "3200 ± 800", "unit": "nM"}]}
{"molecule": "B3", "values": [{"measurement": "Kd", "setting": "Wild-type menin (human) [1]", "result": 10.4, "unit": "µM"}, {"measurement": "stoichiometry N", "setting": "Wild-type menin (human) [5]", "result": 2}, {"measurement": "stoichiometry N", "setting": "Wild-type menin (human) [6]", "result": 2}, {"measurement": "Kd", "setting": "His-sumo-AR MBR B", "result": 47, "unit": "µM"}, {"measurement": "Kd", "setting": "[7]", "result": 10.5, "unit": "µM"}, {"measurement": "Kd", "setting": "His-sumo-AR MBR A", "result": 3, "unit": "mM"}]}
{"molecule": "B4", "values": [{"measurement": "stoichiometry N", "setting": "dynamic light scattering", "result": 2}]}
